{"source": "patent US20070098721A1", "assay_in_all_cases": "dot blot, antigen dilution series on nitrocellulose", "key": {"[1]": {"biological_target": "HFIP-treated Aβ(1-42) monomer of example 1a (human amyloid β(1-42) protein) (human)", "sequence (peptide, as listed by the source)": "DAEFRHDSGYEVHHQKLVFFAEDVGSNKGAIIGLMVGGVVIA"}, "[2]": {"biological_target": "Aβ(1-42) fibril preparation of example 27 (human) (UniProt P05067)", "sequence (P05067 672-713 limits assumed)": "as the sequence (peptide, as listed by the source) above"}, "[3]": {"biological_target": "Aβ(1-42) oligomers B (human amyloid β(1-42) oligomers having molecular weights of 38 kDa and 48 kDa; preparation of example 6b) (human) (UniProt P05067)", "sequence (P05067 672-713 limits assumed)": "as the sequence (peptide, as listed by the source) above"}}, "data": [{"substance": "monoclonal antibody 6E10 (Signet)", "values": [{"measurement": "minimum amount of antigen visible (detection limit)", "setting": "[1]", "result": 0.1, "unit": "pmol"}, {"measurement": "minimum amount of antigen visible (detection limit)", "setting": "[2]", "result": 1, "unit": "pmol"}, {"measurement": "minimum amount of antigen visible (detection limit)", "setting": "[3]", "result": 0.1, "unit": "pmol"}]}]}
